Reference: PMC6145145
Substitutions are numbered along the chain they refer to.

Assays:
POT1-K90E = target: T1, POT1-K90E (human, UniProt Q9NUX5 1-634, K90E); assay: EMSA
T1 sequence: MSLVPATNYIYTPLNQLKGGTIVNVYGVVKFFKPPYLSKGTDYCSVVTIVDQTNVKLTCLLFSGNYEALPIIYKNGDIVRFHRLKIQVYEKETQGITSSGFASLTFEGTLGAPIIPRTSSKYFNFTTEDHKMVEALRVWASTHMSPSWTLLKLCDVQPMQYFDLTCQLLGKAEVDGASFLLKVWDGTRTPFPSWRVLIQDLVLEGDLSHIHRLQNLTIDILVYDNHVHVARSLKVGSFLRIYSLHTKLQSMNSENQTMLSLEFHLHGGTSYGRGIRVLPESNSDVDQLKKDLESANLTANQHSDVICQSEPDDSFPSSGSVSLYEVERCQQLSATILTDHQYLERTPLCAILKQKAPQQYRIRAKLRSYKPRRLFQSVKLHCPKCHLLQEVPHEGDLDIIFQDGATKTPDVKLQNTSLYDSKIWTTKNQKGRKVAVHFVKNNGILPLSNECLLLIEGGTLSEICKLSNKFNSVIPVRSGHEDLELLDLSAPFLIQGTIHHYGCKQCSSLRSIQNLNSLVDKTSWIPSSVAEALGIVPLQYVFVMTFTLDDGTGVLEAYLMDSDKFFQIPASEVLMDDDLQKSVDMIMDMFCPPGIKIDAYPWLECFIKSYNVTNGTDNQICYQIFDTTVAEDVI

POT1 WT = target: T2, POT1 WT (human, UniProt Q9NUX5 1-634); assay: EMSA
T2 sequence: T1 sequence with E90K

## TTAGGGTTAGGGTTAGGG (ssDNA) [telomeric primer (TTAGGG)3]
POT1-K90E
  binding result: binds
POT1 WT
  binding result: binds
